For assay [1], the target named is T1, 重组人CD73蛋白 (自主表达的人源CD73蛋白, C端6×His标签) (human, UniProt P21589 27-549, limits assumed).
T1 sequence: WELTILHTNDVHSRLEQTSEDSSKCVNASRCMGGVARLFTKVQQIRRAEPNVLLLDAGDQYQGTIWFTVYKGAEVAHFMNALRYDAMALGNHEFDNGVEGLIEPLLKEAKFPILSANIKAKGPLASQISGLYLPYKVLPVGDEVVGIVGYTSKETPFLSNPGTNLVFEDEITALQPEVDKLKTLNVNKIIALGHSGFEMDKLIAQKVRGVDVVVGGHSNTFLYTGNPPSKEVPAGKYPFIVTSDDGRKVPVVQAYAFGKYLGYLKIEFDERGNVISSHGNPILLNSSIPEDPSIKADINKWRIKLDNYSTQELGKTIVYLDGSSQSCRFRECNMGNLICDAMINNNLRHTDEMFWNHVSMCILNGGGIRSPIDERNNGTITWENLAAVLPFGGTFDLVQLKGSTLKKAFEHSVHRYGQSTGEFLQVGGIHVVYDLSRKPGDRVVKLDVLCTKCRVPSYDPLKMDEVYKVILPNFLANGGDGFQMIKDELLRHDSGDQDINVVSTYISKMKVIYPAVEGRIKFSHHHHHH
As to the kind of experiment: SPR, Biacore T200, antibody captured by anti-mouse Fc IgG on CM5 chip, human CD73 as analyte, 25℃, 1:1 model. For orientation: In SPR one partner is held on a chip, and binding of the other changes the refractive index at the surface.

Assay [2] concerns the target T1, 重组人CD73蛋白 (自主表达的人源CD73蛋白, C端6×His标签). As to the kind of experiment: SPR, Biacore T200, antibody captured on CM5 chip, human CD73 as analyte, 25℃, 1:1 model.

B1: 抗人CD73单克隆抗体7-C10-Ba-C2 (antibody, V domains shown)
VH: EVQLQQSGPELVKPGASMKISCKASGYSFTGYTMNWVKQSHGKNLEWIGFITPYNGDTIYNQKFKGKATVTVDKSSSTAYMDLLSLTSEDSAVYYCAREGYDGGYFDYWGQGTTLTVSS
VL: DIQMTQSPASLSASVGETVTITCRASENIYSYLAWYQQKQGKSPQLLVYNTQTLAEGVPSRFSGSGSGTQFSLKINSLQPEDFGSYYCQHHYGTPMYPFGGGTKLEIK
notes: Mouse (BALB/c) hybridoma antibody, IgG type, purified from ascites; also called 本发明抗体7-C10-Ba-C2; 本发明的抗CD73单抗
By Kd is commonly meant the free concentration of one partner at which half of the binding sites on the other are occupied at equilibrium, for simple one-to-one binding. Usually koff stands for the first-order rate constant of dissociation. Lower therefore signals a long-lived complex. Broadly, the kon is the second-order rate constant of association. On to B1, for which, in assay [1], the dissociation constant (Kd) turned out to be 0.416 nM, the koff is 3.21e-05 s⁻¹ and the kon turned out to be 77200 M⁻¹ s⁻¹.

B2: MEDI-9447 (MedImmune公司的抗CD73单克隆抗体) (antibody, V domains shown)
VH: EVQLLESGGGLVQPGGSLRLSCAASGFTFSSYAYSWVRQAPGKGLEWVSAISGSGGRTYYADSVKGRFTISRDNSKNTLYLQMNSLRAEDTAVYYCARLGYGRVDEWGRGTLVTVSS
VL: QSVLTQPPSASGTPGQRVTISCSGSLSNIGRNPVNWYQQLPGTAPKLLIYLDNLRLSGVPDRFSGSKSGTSASLAISGLQSEDEADYYCATWDDSHPGWTFGGGTKLTVL
In assay [2], B2 returned a Kd of 0.141 nM, a koff of 3.91e-05 s⁻¹ and an on-rate (kon) of 278000 M⁻¹ s⁻¹.

Source of the values: patent CN114907480A (JIANGSU XINTRUM PHARMACEUTICALS CO LTD, dated 2022).
